The record followed here is patent publication US20220363732A1 (MAX DELBR CK CENTRUM F R MOLEKULARE MEDIZIN IN DER …, published 2022).

Assay [1] has as its target T1, CD5 peptide on HLA-A*02:01 (human).
T1 peptide: SICEGTVEV
Nature of the assay: killing.

Assay [2] deals with CD5 51-59 epitope (…, SEQ ID NO: 1) in complex with HLA-A2 (human). Nature of the assay: cell-based or functional assay.
The target of assay [3] is T2, CD5 peptide on HLA-A*02:01 (human).
T2 peptide: YLKDGWHMV
The assay can be described thus: killing.

Residue numbers refer to the chain shown, from its start.

B1: T-7378 (TCR, V domains shown)
Valpha: AQTVTQSQPEMSVQEAETVTLSCTYDTSESDYYLFWYKQPPSRQMILVIRQEAYKQQNATENRFSVNFQKAAKSFSLKISDSQLGDAAMYFCAYRGTSGTYKYIFGTGTMLKVLA
Vbeta: DTEVTQTPKHLVMGMTNKKSLKCEQHMGHRAMYWYKQKAKKPPELMFVYSYEKLSINESVPSRFSPECPNSSLLNLHLHALQPEDSALYLCASSRGLAGPYEQYFGPGTRLTVT
On to B1, for which, in assay [1], the binding result is listed as “recognises”.

B2: T-20109 TCR (TCR, V domains shown)
V domain 1: AQKITQTQPGMFVQEKEAVTLDCTYDTSDPSYGLFWYKQPSSGEMIFLIYQGSYDQQNATEGRYSLNFQKARKSANLVISASQLGDSAMYFCAMREEYSGAGSYQLTFGKGTKLSVIP
V domain 2: EPEVTQTPSHQVTQMGQEVILRCVPISNHLYFYWYRQILGQKVEFLVSFYNNEISEKSEIFDDQFSVERPDGSNFTLKIRSTKLEDSAMYFCASSQGPYNEQFFGPGTRLTVLE
Turning to B2, the “Kd value from peptide titration on peptide loaded T2 cells: fold increase for RNAi-CD5 TCR T cells from HLA-A2+ donors against TCR-transduced T cells from an HLA-A2- donor” value in assay [2] was 2.24 fold.

B3: T-20332 (TCR, V domains shown)
Valpha: B2 V domain 1
Vbeta: EPEVTQTPSHQVTQMGQEVILRCVPISNHLYFYWYRQILGQKVEFLVSFYNNEISEKSEIFDDQFSVERPDGSNFTLKIRSTKLEDSAMYFCASSRGPYNEQFFGPGTRLTVL
In the case of B3, in assay [3], the binding result is listed as “recognises”.

B4: T-20109 (TCR, V domains shown)
Valpha: B2 V domain 1
Vbeta: B3 Vbeta with R96Q
As to B4, the binding result in assay [3] is reported as “recognises”.

B5: T-20332 TCR (TCR, V domains shown)
V domain 1: B2 V domain 1
V domain 2: B2 V domain 2 with Q96R
On to B5, for which the “Kd value from peptide titration on peptide loaded T2 cells: fold increase for RNAi-CD5 TCR T cells from HLA-A2+ donors against TCR-transduced T cells from an HLA-A2- donor” value in assay [2] was determined as 1.48 fold.
